Publication PMC2997501, “Different Residues on the Surface of the Methanothermobacter thermautotrophicus MCM Helicase Interact with Single- and Double-Stranded DNA” (Archaea, 2010)

Columns and labels:
MCM G218A = biological target: T1, MCM G218A (Methanothermobacter thermautotrophicus, UniProt O27798 1-666, G218A); assay: filter binding; 10 mM Mg2+, no ATP; 25 mM Hepes-NaOH pH 7.5, 2 mM DTT, 10 mM MgCl2, 100 ug/ml BSA, 50 fmol 32P-DNA in 20 ul, 10/30/90 nM MCM monomer (25 nM for the ATP test), 60 C, 10 min; nitrocellulose filter washed with 20 mM Tris-HCl pH 7.5; settings: protein: recombinant; tags: C-terminal His6; chain copies: 6; label: 32P (T4 PNK, 5' end); blunt
T1 sequence: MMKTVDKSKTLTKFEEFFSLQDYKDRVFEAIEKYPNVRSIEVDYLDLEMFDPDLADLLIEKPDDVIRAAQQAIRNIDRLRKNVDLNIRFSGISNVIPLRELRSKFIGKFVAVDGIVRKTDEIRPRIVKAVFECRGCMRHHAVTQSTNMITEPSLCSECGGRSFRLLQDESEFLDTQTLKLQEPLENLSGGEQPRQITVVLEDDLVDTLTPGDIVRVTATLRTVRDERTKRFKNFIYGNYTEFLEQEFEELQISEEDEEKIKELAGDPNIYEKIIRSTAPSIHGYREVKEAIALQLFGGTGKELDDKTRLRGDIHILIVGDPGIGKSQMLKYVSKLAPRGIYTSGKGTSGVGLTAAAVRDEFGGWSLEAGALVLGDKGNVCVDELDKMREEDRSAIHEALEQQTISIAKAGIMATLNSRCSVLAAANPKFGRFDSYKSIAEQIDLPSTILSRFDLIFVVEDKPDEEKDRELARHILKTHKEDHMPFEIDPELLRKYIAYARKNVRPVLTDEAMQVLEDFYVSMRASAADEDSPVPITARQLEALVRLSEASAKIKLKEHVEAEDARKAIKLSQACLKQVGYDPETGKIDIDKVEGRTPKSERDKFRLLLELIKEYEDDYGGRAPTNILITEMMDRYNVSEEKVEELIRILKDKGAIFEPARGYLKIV

MCM G211A [1] = biological target: T2, MCM G211A (Methanothermobacter thermautotrophicus, UniProt O27798 1-666, G211A); assay: as above; settings: protein: recombinant; tags: C-terminal His6; chain copies: 6; label: 32P (T4 PNK, 5' end); blunt
T2 sequence: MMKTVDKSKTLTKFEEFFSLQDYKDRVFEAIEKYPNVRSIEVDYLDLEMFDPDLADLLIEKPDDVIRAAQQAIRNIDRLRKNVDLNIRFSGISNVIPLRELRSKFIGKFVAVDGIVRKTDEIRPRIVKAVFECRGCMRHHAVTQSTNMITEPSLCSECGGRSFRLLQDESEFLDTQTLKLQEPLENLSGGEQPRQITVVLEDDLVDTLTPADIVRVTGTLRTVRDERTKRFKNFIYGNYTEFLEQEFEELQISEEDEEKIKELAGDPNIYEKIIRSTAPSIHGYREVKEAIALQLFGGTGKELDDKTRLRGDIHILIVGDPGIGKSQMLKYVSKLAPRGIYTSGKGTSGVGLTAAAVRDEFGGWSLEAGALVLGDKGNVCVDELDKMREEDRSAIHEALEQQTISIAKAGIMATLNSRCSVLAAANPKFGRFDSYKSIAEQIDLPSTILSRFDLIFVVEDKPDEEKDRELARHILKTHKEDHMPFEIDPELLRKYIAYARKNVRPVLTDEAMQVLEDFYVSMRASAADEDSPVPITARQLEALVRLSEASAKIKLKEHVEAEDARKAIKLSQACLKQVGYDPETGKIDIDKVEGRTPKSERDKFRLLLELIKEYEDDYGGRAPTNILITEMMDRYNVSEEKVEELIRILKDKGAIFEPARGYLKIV

MCM Q176A = biological target: T3, MCM Q176A (Methanothermobacter thermautotrophicus, UniProt O27798 1-666, Q176A); assay: as above; settings: protein: recombinant; tags: C-terminal His6; chain copies: 6; label: 32P (T4 PNK, 5' end); blunt
T3 sequence: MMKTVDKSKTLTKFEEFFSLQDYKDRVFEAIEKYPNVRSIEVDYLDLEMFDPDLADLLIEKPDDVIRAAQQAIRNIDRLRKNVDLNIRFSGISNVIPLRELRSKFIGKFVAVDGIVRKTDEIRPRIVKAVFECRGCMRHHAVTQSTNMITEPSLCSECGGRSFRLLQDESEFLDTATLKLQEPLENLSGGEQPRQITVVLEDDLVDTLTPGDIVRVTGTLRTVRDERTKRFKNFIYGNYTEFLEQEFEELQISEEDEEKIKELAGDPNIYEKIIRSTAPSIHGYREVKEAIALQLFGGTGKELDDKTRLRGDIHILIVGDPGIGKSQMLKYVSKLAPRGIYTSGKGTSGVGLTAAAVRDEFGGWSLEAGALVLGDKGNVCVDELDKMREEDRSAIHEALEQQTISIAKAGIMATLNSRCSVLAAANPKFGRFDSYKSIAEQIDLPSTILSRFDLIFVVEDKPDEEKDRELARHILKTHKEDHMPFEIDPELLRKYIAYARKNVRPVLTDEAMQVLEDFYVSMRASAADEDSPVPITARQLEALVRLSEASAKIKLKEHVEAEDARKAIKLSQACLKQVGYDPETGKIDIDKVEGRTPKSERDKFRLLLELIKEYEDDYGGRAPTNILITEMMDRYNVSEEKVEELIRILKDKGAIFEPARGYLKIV

MCM P210G [2] = biological target: T4, MCM P210G (Methanothermobacter thermautotrophicus, UniProt O27798 1-666, P210G); assay: as above; settings: protein: recombinant; tags: C-terminal His6; chain copies: 6; label: 32P (T4 PNK, 5' end); blunt
T4 sequence: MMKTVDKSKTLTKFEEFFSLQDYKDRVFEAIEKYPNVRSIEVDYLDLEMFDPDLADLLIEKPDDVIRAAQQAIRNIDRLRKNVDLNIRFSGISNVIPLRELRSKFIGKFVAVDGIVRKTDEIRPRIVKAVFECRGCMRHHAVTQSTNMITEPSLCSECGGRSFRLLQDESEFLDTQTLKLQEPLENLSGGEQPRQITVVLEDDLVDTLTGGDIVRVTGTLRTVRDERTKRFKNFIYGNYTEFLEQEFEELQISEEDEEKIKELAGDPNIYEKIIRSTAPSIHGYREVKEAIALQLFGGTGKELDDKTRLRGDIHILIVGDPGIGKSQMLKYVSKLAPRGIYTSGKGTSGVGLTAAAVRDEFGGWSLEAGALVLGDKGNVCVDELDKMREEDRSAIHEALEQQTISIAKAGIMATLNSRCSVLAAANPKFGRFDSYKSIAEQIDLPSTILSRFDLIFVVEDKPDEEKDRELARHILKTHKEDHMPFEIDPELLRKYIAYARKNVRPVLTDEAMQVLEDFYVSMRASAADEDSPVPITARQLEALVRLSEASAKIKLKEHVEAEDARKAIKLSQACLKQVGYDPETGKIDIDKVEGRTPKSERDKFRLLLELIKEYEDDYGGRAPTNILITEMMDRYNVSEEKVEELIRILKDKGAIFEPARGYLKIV

MCM PG210,211GA = biological target: T5, MCM PG210,211GA (Methanothermobacter thermautotrophicus, UniProt O27798 1-666, P210G;G211A); assay: filter binding; 10 mM Mg2+, no ATP; better than wild-type; 25 mM Hepes-NaOH pH 7.5, 2 mM DTT, 10 mM MgCl2, 100 ug/ml BSA, 50 fmol 32P-DNA in 20 ul, 10/30/90 nM MCM monomer (25 nM for the ATP test), 60 C, 10 min; nitrocellulose filter washed with 20 mM Tris-HCl pH 7.5; settings: protein: recombinant; tags: C-terminal His6; chain copies: 6; label: 32P (T4 PNK, 5' end)
T5 sequence: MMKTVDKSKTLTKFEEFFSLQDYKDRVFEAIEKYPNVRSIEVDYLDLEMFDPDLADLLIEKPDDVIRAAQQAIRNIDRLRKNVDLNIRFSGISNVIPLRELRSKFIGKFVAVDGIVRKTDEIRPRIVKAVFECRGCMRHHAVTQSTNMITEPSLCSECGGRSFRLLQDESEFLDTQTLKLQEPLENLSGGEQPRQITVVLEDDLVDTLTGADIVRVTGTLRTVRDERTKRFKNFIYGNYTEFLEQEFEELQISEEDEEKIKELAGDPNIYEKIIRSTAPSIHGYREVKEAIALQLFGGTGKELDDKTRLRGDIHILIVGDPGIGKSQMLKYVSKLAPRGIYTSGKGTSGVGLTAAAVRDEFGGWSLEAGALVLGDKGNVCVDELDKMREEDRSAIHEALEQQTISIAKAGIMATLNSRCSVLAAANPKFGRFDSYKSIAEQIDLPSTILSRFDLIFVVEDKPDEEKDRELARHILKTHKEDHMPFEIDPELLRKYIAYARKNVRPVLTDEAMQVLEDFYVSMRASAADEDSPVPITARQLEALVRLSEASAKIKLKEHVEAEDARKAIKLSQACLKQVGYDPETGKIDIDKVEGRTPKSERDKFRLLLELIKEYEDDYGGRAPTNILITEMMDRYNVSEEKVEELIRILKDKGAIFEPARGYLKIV

MCM G211A [3] = biological target: T2, MCM G211A; assay: as above; settings: protein: recombinant; tags: C-terminal His6; chain copies: 6; label: 32P (T4 PNK, 5' end)
MCM P210G [4] = biological target: T4, MCM P210G; assay: as above; settings: protein: recombinant; tags: C-terminal His6; chain copies: 6; label: 32P (T4 PNK, 5' end)

B1: 49-mer dsDNA (dsDNA)
DNA 1: GCAGATAACAGTTGTCCTGGAGAACGACCTGGTTGACACCCTCACACCC
DNA 2: GGGTGTGAGGGTGTCAACCAGGTCGTTCTCCAGGACAACTGTTATCTGC
- binding signal (MCM G218A): ~25 % reduction vs wild-type
- binding signal (MCM G211A [1]): ~50 % reduction vs wild-type
- binding signal (MCM Q176A): ~50 % reduction vs wild-type
- binding signal (MCM P210G [2]): ~50 % reduction vs wild-type

B2: 49-mer ssDNA (ssDNA)
DNA: GCAGATAACAGTTGTCCTGGAGAACGACCTGGTTGACACCCTCACACCC
- binding result (MCM PG210,211GA): binds
- binding result (MCM G211A [3]): binds
- binding result (MCM P210G [4]): binds
